According to article PMC2990918:

Molecular target: normal undigested taxol microtubules (αβ-MTs) of porcine brain tubulin (porcine (brain)) (UniProt P02550)
Assay: co-sedimentation

- Kd: 510 nM
- percent dissociated at 100 mM NaCl: 30%
Substance: CLIP-170 MT-binding domain fragment H1^1–350 (from UniProt P30622 1-350) (domain or fragment)
